For this test, the target named is Rabbit skeletal muscle actin (rabbit, UniProt P68135 1-377). The test is described as follows: co-sedimentation.

B1: LmForminA FH2 domain (695aa-1092aa) (domain or fragment)
chain: ASGAAAPMLNSSTTRNVPINGAVGDSDDAIFKAARPIELTAGARDKLLALFPKAAPKHVIEEDEATSRVQRILDVNRDRNVGIVLKFIRLPIQQIEASVRTFDTLTLGEERISGLLKIIPTSDDFEAIARAQKEHGGPWKRAEEQQLPQAVRFFLMTQRIDHYAERIHAWSLRYELHGRLEYLEQKLSKADKAIDATFASPSLPDLLYFLLEVSNFLNAGSRFQGAKGFPITQLPQIMDFKTTDGKGTLLQYVAEILDTVNPHLQAISSELMPAVDEGRDIDVASIEQELKKLRGRLQKCKHLIEQLKNDVRWTNVLGKFIYRSLPELERVEKLAESINGKAERLQEFLCEKKETFSLNEVLRVLSNFCKRYEQEREKQRLRQERQDRMEDNKQRRQS
Broadly, the Kd is the equilibrium constant for the complex coming apart. The low end stands for a tighter complex, the high end for a looser complex. Regarding B1, binding was characterised by a dissociation constant (Kd) of 1840 nM.

B2: LmForminB FH2 domain (714aa-1149aa) (domain or fragment)
chain: KPKPQYTGPRLKTFFWKKILKPSGIWAASDTDDVRRAVIDESFMLKLFKLKAVAQPSAAEGAAEKSEQERRSQLRSNVFTGQRLQNMGIALKRVQVPVEVLCKALITCDSAVLPPERREMLTAALPTTEDVTALTAEKQAGRSVWTEVETYLYTAATTVKDVRERLQLWTAAEELEDTVQSISSLLSSVDAAVCAITHRNGRFARMMRIILAFGNHLNRGTPHADAEGFRLESLNQLNFVKSSDGKTTVLMALVVSLMDSGRGRSERGGGTTSAPGADNDDDDVRNALRFVEDVSCVRAVANSPLQDMGQQVSQLNFTLQRMRRVVEEAKDTKAWYDKRLPSVKAEEVPDALPGLLREAVDRYLATVGQIALRYQQLRDDVSAMMATYGEDPNADETVIWGYVLQFSKDVQRCVDTVAAVHLTKRRLMGMPEATEQ
B2: the Kd is 200 nM.

For the origin of these results see article doi:10.1101/2021.04.12.439584 (bioRxiv, 2021).
